Source: patent publication US20250333531A1 (NORDIC NANOVECTOR ASA, published 2025)

T1: human CD37 (human, UniProt P11049 1-281)
T1 construct: whole, on cells; also called CD37 antigen
T1 sequence (looked up): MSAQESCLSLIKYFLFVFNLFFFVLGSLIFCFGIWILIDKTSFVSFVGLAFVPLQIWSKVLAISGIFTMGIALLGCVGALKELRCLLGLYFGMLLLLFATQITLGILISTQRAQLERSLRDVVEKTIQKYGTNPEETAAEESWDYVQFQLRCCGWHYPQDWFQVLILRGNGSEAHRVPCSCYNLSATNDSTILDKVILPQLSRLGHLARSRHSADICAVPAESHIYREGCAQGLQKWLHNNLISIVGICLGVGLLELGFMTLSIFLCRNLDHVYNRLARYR

T2: biotinylated truncated soluble human FcγRIIa-R131 (human, UniProt P12318 34-217, biotinylated)
T2 construct: extracellular domain; Bought
T2 sequence (looked up): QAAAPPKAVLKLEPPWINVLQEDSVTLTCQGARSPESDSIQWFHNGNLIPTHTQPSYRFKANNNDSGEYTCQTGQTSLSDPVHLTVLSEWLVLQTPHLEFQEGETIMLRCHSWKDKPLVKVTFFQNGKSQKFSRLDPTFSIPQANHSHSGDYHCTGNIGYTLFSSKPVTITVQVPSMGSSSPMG

T3: biotinylated truncated soluble human FcγRIIb (human, UniProt P31994 43-217, biotinylated)
T3 construct: extracellular domain; Bought
T3 sequence (looked up): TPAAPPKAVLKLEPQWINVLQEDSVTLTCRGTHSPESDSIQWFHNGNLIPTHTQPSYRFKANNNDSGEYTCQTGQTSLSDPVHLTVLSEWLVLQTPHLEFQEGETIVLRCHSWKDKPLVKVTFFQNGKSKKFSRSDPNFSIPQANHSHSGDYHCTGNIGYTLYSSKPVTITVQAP

T4: biotinylated truncated soluble human FcγRIIa-H131 (human, UniProt P12318 34-217, biotinylated)
T4 construct: extracellular domain; Bought
T4 sequence (looked up): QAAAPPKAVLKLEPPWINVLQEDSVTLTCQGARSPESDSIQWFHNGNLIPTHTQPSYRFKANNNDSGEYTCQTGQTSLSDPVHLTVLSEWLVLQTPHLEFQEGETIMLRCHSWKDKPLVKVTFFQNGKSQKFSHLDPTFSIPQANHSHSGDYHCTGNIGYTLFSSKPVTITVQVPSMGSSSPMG


Tests used:
human CD37 [1] = molecular target: T1, human CD37; test: competitive radioligand binding on Ramos cells against 177Lu-NNV009 (2.7 nM), gamma counting
Description: (§1) The Eppendorf LoBind tubes 1.5 mL were used to prepare dilutions (working concentrations) of Abs. As much as 0.2 mL of the cell suspension (800 000 cells/tube), after it has been cooled down for 30 min on ice, was aliquoted to glass 12×75 mm counting tubes. Each tube was pre-labeled with a code specifically determining each sample. The tubes with cells were maintained on ice for whole time course of the experiment except for the time when counted on the gamma counter. The tubes were agitated on a planetary shaker at 350 RPM, 4° C. (on ice) for 15 min. […] The tubes were placed on the planetary shaker (GL 064), on ice, and shaken for 4 hours at 350 RPM. After 3.5 hours past from the beginning of incubation, the samples were assayed on Wizard2 gamma counter using protocol “Lu-177 General” (all detectors except for the detector #3 were used). Upon completion the counting, the cells were washed with ice-cold 0.5 mL 0.5% BSAPBS three times. All the tubes were assayed on the Wizard2 gamma counter again using the same sequence and parameters as before the washing.

human CD37 [2] = molecular target: T1, human CD37; test: competitive radioligand binding on Ramos cells; ratio to Ki of NNV009 (assumed 2.3)
Description: as §1

human CD37 [3] = molecular target: T1, human CD37; test: competitive radioligand binding on Ramos cells; upper end tied by Table 18 to AH02895
[4] = molecular target: T5, biotinylated truncated soluble human FcγRIIIa-F158 (human, UniProt P08637 17-208, biotinylated); test: ELISA: IgG coated at 10000-4.5 ng/ml, biotinylated truncated soluble human FcγRIIIa-F158 250 ng/ml pre-complexed with AP-streptavidin, absorbance 405 nm
T5 construct: extracellular domain; Bought
Description: (§2) 96 well EIA/RIA plates (CorningCostar) were coated with 100 μl titrated amounts of IgG variants (10.000-4.5 ng/ml) diluted in PBS and incubated O/N at 4° C. Remaining surface area were blocked with PBS containing 0.05% T and 4% S for 1 h at RT. The plates were washed four times with PBS/T using a Hydrospeed™ plate washer (Tecan). […] Following washing as above, bound receptor was visualized by addition of phosphatase substrate (1 mg/ml in diethanolamine buffer) (Sigma Aldrich). The plates were developed for 15-20 min before the 405 nm absorption values were recorded using a TECAN Sunrise spectrophotometer (Tecan).

[5] = molecular target: FcγRIIIa-V158 on Promega Jurkat effector cells (UniProt P08637 17-254, limits assumed); test: cell-based or functional assay
[6] = molecular target: T6, biotinylated soluble human FcRn (human, UniProt P55899 24-297; P61769 21-119, biotinylated); test: ELISA: IgG coated at 1000-0.45 ng/ml, biotinylated soluble human FcRn 250 ng/ml pre-complexed with AP-streptavidin, pH 6.0, absorbance 405 nm
T6 construct: extracellular domain; Bought; Beta-2-microglobulin is not mentioned; Used as preformed complex with AP-streptavidin
Description: Remaining surface area were blocked with PBS containing 0.05% T and 4% S for 1 h at RT. The plates were washed four times with PBS/T using a Hydrospeed™ plate washer (Tecan). […] Following washing as above with PBS/T or FcRn binding buffer ([…], 0.1 M NaCl, 0.05% T, pH 6.0), bound receptor was visualized by addition of phosphatase substrate (1 mg/ml in diethanolamine buffer) (Sigma Aldrich). The plates were developed for 20-30 min before the 405 nm absorption values were recorded using a TECAN Sunrise spectrophotometer (Tecan).

human CD37 [7] = molecular target: T1, human CD37; test: reference to the competitive binding of Example 6
[8] = molecular target: T7, biotinylated truncated soluble human FcγRIIIa-V158 (human, UniProt P08637 17-208, biotinylated); test: ELISA: IgG coated at 10000-4.5 ng/ml, biotinylated truncated soluble human FcγRIIIa-V158 250 ng/ml pre-complexed with AP-streptavidin, absorbance 405 nm
T7 construct: extracellular domain; Bought
Description: as §2

[9] = molecular target: T8, biotinylated truncated soluble human FcγRIIIb (human, UniProt O75015 17-200, limits assumed, biotinylated); test: ELISA: IgG coated at 10000-4.5 ng/ml, biotinylated truncated soluble human FcγRIIIb 250 ng/ml pre-complexed with AP-streptavidin, absorbance 405 nm
T8 construct: extracellular domain; Bought
Description: as §2

[10] = molecular target: T9, human complement factor C1q (human, UniProt P02745 23-245; P02746 28-253; P02747 29-245); test: ELISA: IgG coated at 20000-156.25 ng/ml, human C1q 360 ng/ml, detected with rabbit anti-human C1q and HRP anti-rabbit IgG (y axis printed as Absorbance 405 nm)
T9 construct: Bought
Description: (§3) Remaining surface area were blocked with PBS containing 0.05% T and 4% S for 1 h at RT. The plates were then washed four times with PBS/T using a Hydrospeed™ plate washer (Tecan). Human C1q (Complement Technologies) diluted to 360 ng/ml in veronal buffer (Complement Technologies) were added and incubated for 30 min at 37° C. Detection of bound C1q was performed using a primary anti-human C1q antibody from rabbit (DAKO) diluted 1:10.000 in PBS/T/S and a secondary horseradish peroxidase (HRP) conjugated anti-rabbit IgG antibody diluted 1:5000 in PBS/T/S (GE Healthcare). Binding was visualized by addition of 100 μl TMB substrate (Calbiochem) for 15-20 min before the enzymatic reaction was stopped by addition of 50 μl 1 M HC1. The 450 nm absorption values were recorded using a Sunrise TECAN spectrophotometer (Tecan).

[11] = molecular target: T2, biotinylated truncated soluble human …; test: ELISA: IgG coated at 10000-4.5 ng/ml, biotinylated truncated soluble human FcγRIIa-R131 250 ng/ml pre-complexed with AP-streptavidin, absorbance 405 nm
Description: as §2

[12] = molecular target: T3, biotinylated truncated soluble human …; test: ELISA: IgG coated at 10000-4.5 ng/ml, biotinylated truncated soluble human FcγRIIb 250 ng/ml pre-complexed with AP-streptavidin, absorbance 405 nm
Description: as §2

[13] = molecular target: T9, human complement factor C1q; test: repeat ELISA: IgG coated at 20000-156.25 ng/ml, human C1q 360 ng/ml, detected with rabbit anti-human C1q and HRP anti-rabbit IgG (y axis printed as Absorbance 405 nm)
Description: as §3

[14] = molecular target: T10, biotinylated truncated soluble human FcγRI (human, UniProt P12314 16-292, biotinylated); test: ELISA: IgG coated at 10000-4.5 ng/ml, biotinylated truncated soluble human FcγRI 250 ng/ml pre-complexed with AP-streptavidin, absorbance 405 nm
T10 construct: extracellular domain; Bought; preformed complex with AP-streptavidin
Description: as §2

[15] = molecular target: T4, biotinylated truncated soluble human …; test: ELISA: IgG coated at 10000-4.5 ng/ml, biotinylated truncated soluble human FcγRIIa-H131 250 ng/ml pre-complexed with AP-streptavidin, absorbance 405 nm
Description: as §2

human CD37 [16] = molecular target: T1, human CD37; test: competitive radioligand binding on Ramos cells; lower end tied by Table 18 to AH02871HC + AH02877LC + V110D

T9 sequence (P02745 23-245 limits assumed, chain 1 of 3): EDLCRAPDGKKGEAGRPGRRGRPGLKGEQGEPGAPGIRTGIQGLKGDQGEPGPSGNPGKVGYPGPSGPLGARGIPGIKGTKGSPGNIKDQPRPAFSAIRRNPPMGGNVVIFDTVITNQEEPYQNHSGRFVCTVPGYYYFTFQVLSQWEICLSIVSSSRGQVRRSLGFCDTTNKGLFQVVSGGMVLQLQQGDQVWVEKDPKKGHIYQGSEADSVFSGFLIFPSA
T9 sequence (P02746 28-253 limits assumed, chain 2 of 3): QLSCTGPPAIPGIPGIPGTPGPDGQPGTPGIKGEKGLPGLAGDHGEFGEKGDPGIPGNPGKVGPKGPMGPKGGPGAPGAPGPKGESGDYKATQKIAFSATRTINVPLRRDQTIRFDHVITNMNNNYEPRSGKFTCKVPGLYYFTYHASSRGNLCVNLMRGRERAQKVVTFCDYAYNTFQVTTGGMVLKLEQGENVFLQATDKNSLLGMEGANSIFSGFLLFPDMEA
T9 sequence (P02747 29-245 limits assumed, chain 3 of 3): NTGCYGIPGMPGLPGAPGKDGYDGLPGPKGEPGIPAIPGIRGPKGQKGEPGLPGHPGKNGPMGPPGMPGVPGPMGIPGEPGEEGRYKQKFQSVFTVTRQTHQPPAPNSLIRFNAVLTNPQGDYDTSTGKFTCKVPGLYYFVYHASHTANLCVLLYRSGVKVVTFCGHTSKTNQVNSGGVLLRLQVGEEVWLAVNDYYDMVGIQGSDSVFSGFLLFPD
T6 sequence (P55899 24-297 limits assumed, chain 1 of 2): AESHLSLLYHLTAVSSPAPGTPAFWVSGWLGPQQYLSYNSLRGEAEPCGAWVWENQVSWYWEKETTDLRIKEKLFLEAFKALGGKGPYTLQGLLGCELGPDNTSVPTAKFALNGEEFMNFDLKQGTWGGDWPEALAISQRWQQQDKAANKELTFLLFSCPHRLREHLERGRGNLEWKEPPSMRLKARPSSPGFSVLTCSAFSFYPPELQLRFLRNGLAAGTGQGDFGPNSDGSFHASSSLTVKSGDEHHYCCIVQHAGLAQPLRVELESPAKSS
T6 sequence (P61769 21-119 limits assumed, chain 2 of 2): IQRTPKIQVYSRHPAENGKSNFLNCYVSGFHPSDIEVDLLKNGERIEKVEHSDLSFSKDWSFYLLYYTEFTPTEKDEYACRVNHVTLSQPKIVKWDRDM
T10 sequence (P12314 16-292): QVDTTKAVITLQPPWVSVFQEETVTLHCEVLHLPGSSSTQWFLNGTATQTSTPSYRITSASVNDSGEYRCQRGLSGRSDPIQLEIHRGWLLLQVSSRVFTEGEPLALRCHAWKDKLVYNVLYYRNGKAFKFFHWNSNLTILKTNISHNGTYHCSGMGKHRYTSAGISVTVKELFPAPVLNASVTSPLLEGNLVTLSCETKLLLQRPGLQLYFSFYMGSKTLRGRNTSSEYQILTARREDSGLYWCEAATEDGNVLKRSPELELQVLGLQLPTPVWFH
T8 sequence (O75015 17-200 limits assumed): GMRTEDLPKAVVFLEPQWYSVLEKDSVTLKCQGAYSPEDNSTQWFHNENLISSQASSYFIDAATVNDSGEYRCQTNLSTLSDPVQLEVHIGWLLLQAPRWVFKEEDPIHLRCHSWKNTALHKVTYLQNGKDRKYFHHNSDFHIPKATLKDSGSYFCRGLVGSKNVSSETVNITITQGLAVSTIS

Binder | EC50 (human CD37 [1]) [nM] | Ki (human CD37 [1]) [nM] | Ki(NNV009)/Ki(NNV020 var.) (human CD37 [2]) [fold] | EC50 (read off the curve) [4] [µg/mL] | average potency of the ADCC response (Example 13) [5] [nM] | EC50 (read off the curve) [6] [µg/mL] | EC50 (read off the curve) [10] [µg/mL] | EC50 (read off the curve) [11] [µg/mL] | EC50 (read off the curve) [12] [µg/mL] | EC50 (read off the curve) [13] [µg/mL] | EC50 (read off the curve) [14] [µg/mL] | EC50 (read off the curve) [15] [µg/mL] | other results
AH02895 (antibody, human IgG1, kappa, V domains shown, Humanized IgG1 kappa; also called NNV020 #6) VH: QIQLVQSGAEVVKPGASVKVSCKASGYSFTDYNMYWVKQAPGQRLEWMGYIDPYNGDTTYNQKFKGRATITRDTSASTAYIELSSLRSEDTAVYYCARSPYGHYAMDYWGQGTLVTVSS VL: DIQMTQSPSSLSASVGDRVTITCKASQDVSTAVDWYQQKPGKAPKLLINWASTRHTGVPSRFSGSGSGTDYTLTISSMQPEDFATYYCRQHYSTPFTFGQGTKLEIKR | 0.718 | 0.33 | 6.97 | – | – | – | – | – | – | – | – | – | fold affinity relative to NNV009 (human CD37 [3]): 4 to 7 fold
NNV024 (antibody, human IgG1, afucosylated N-glycan (GlymaxX technology), Humanized IgG1 kappa, same chains as NNV023, afucosylated; also called afucosylated NNV023; AH02871HC_2877LC-110D GlymaxX) heavy: not shown light: DIQMTQSPSSLSASVGDRVTITCKASQDVSTAVDWYQQKPGKSPKLLINWASTRHTGVPSRFSGSGSGTDYTLTISSLQPEDFATYYCRQHYSTPFTFGQGTKLEIKRTDAAPSVFIFPPSDEQLKSGTASVVCLLNNFYPREAKVQWKVDNALQSGNSQESVTEQDSKDSTYSLSSTLTLSKADYEKHKVYACEVTHQGLSSPVTKSFNRGEC | – | – | – | ~0.2 | 0.6 | ~0.04 | ~3 | ~0.8 | ~0.7 | ~2 | ~0.4 | ~0.3 | ADCC signaling at 1 µg/mL relative to obinutuzumab, patient-derived CLL cells [5]: ~3 fold; average Emax relative to rituximab, ADCC FcγRIIIa-158V reporter assay, ten B-NHL cell lines [5]: 1.36 fold; average potency (EC50) relative to rituximab, ADCC FcγRIIIa-158V reporter assay [5]: 35.5 fold; binding result (human CD37 [7]): binds; EC50 (read off the curve) [8]: ~0.6 µg/mL; EC50 (read off the curve) [9]: ~0.4 µg/mL
NNV023 (antibody, human IgG1, Humanized IgG1 kappa, fucosylated; also called AH02871HC + AH02877LC + V110D; AH02871HC_2877LC-110D) heavy: not shown light: DIQMTQSPSSLSASVGDRVTITCKASQDVSTAVDWYQQKPGKSPKLLINWASTRHTGVPSRFSGSGSGTDYTLTISSLQPEDFATYYCRQHYSTPFTFGQGTKLEIKRTDAAPSVFIFPPSDEQLKSGTASVVCLLNNFYPREAKVQWKVDNALQSGNSQESVTEQDSKDSTYSLSSTLTLSKADYEKHKVYACEVTHQGLSSPVTKSFNRGEC | 1.24 | 0.571 | 4.03 | – | 3 | – | – | – | – | – | – | – | fold affinity relative to NNV009 (human CD37 [16]): 4 to 7 fold; efficacy (Emax) relative to NNV024, ADCC FcγRIIIa-158V reporter assay [5]: 75%; potency (EC50) relative to rituximab, ADCC FcγRIIIa-158V reporter assay [5]: ~7 fold
NNV003 (antibody, human IgG1, kappa, Mouse/human IgG1 kappa chimera of lilotomab; also called chHH1; chimeric HH1) heavy: not shown light: DIVMTQSHKLLSTSVGDRVSITCKASQDVSTAVDWYQQKPGQSPKLLINWASTRHTGVPDRFTGSGSGTDYTLTISSMQAEDLALYYCRQHYSTPFTFGSGTKLEIKRTVAAPSVFIFPPSDEQLKSGTASVVCLLNNFYPREAKVQWKVDNALQSGNSQESVTEQDSKDSTYSLSSTLTLSKADYEKHKVYACEVTHQGLSSPVTKSFNRGEC | – | – | – | ~0.5 | – | ~0.04 | ~3 | ~0.8 | ~0.7 | ~1 | ~0.4 | ~0.3 | –
